According to IntAct's records for PubMed 26278177:

B1: DNA repair protein complementing XP-C cells (Homo sapiens), Q01831-1 (parent)
chain: MARKRAAGGEPRGRELRSQKSKAKSKARREEEEEDAFEDEKPPKKSLLSKVSQGKRKRGCSHPGGSADGPAKKKVAKVTVKSENLKVIKDEALSDGDDLRDFPSDLKKAHHLKRGATMNEDSNEEEEESENDWEEVEELSEPVLGDVRESTAFSRSLLPVKPVEIEIETPEQAKTRERSEKIKLEFETYLRRAMKRFNKGVHEDTHKVHLLCLLANGFYRNNICSQPDLHAIGLSIIPARFTRVLPRDVDTYYLSNLVKWFIGTFTVNAELSASEQDNLQTTLERRFAIYSARDDEELVHIFLLILRALQLLTRLVLSLQPIPLKSATAKGKKPSKERLTADPGGSSETSSQVLENHTKPKTSKGTKQEETFAKGTCRPSAKGKRNKGGRKKRSKPSSSEEDEGPGDKQEKATQRRPHGRERRVASRVSYKEESGSDEAGSGSDFELSSGEASDPSDEDSEPGPPKQRKAPAPQRTKAGSKSASRTHRGSHRKDPSLPAASSSSSSSKRGKKMCSDGEKAEKRSIAGIDQWLEVFCEQEEKWVCVDCVHGVVGQPLTCYKYATKPMTYVVGIDSDGWVRDVTQRYDPVWMTVTRKCRVDAEWWAETLRPYQSPFMDREKKEDLEFQAKHMDQPLPTAIGLYKNHPLYALKRHLLKYEAIYPETAAILGYCRGEAVYSRDCVHTLHSRDTWLKKARVVRLGEVPYKMVKGFSNRARKARLAEPQLREENDLGLFGYWQTEEYQPPVAVDGKVPRNEFGNVYLFLPSMMPIGCVQLNLPNLHRVARKLDIDCVQAITGFDFHGGYSHPVTDGYIVCEEFKDVLLTAWENEQAVIERKEKEKKEKRALGNWKLLAKGLLIRERLKRRYGPKSEAAAPHTDAGGGLSSDEEEGTSSQAEAARILAASWPQNREDEEKQKLKGGPKKTKREKKAAASHLFPFEQL

Variants of: B1
Details: with tf2h1_human GTF2H1, P32780
Sequence of tf2h1_human GTF2H1, P32780 (P32780 whole entry): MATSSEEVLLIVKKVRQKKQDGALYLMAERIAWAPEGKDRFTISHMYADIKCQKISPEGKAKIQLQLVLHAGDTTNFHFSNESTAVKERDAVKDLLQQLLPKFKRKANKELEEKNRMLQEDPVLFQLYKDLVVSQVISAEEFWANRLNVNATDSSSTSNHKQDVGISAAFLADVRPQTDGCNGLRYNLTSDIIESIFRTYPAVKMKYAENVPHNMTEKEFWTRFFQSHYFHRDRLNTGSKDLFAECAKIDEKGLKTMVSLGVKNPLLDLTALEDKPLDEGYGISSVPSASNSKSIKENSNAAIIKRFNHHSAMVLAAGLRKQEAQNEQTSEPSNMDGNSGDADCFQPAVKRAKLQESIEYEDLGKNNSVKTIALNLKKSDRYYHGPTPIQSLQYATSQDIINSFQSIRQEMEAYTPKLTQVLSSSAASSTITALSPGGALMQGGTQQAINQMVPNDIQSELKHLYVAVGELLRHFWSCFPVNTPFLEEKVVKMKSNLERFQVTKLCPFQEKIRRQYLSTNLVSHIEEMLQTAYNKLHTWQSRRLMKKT
L139A was tested, and the “effect of a mutation on the interaction” value was “decreasing interaction strength”. For E128A, the “effect of a mutation on the interaction” value was “decreasing interaction strength”. For W133A, the “effect of a mutation on the interaction” value was “disrupting interaction strength”. W133F was tested, and the “effect of a mutation on the interaction” value was “decreasing interaction strength”. With V136A the “effect of a mutation on the interaction” value was “decreasing interaction strength”.

Variants of: B1
Details: with ercc3_human ERCC3, P19447
Sequence of ercc3_human ERCC3, P19447 (P19447 whole entry): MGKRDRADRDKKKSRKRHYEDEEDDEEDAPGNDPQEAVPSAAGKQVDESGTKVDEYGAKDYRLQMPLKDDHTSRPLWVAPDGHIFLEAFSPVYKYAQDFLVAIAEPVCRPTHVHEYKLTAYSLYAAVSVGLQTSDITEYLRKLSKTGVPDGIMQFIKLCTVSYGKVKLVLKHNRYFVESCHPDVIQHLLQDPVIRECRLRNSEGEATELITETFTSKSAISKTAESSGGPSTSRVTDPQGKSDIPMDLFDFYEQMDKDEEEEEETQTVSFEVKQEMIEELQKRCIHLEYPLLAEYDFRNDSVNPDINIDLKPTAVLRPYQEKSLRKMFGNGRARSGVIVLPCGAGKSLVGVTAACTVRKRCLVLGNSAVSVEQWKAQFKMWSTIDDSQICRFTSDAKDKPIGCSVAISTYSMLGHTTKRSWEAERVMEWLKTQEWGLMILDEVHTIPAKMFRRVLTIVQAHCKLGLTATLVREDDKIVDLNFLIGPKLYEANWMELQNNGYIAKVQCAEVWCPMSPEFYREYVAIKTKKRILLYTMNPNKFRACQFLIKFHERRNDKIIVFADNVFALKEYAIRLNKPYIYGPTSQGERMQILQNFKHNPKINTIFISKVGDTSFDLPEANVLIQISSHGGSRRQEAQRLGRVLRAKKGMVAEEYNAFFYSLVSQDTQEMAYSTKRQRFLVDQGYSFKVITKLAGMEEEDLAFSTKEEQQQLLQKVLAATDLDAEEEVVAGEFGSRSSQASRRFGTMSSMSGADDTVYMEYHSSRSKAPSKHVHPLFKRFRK
In the case of W133A, the “effect of a mutation on the interaction” value is reported as “decreasing interaction strength”. In the case of V136A, the “effect of a mutation on the interaction” value is reported as “decreasing interaction strength”. W133A;V136A was tested, and the “effect of a mutation on the interaction” value was “decreasing interaction strength”.
